Tests used:
Details in all cases: remark: other sources report otherwise
[1] = target: T1, Nt17 peptide (the first 17 amino acids at the N-terminus of huntingtin), P42858; assay: native MS; cVSSI-MS, positive ion mode; Nt17 10 uM incubated with DOPC vesicles with 20% exogenous cholesterol, 10:1 lipid:peptide, 24 h at 37 °C, 10 mM ammonium acetate; peak areas normalised to [M + 2H]2+
T1 chain: MATLEKLMKAFESLKSF

[2] = target: T1, Nt17 peptide (the first 17 amino acids …); assay: native MS; cVSSI-MS, positive ion mode; Nt17 10 uM incubated with pure POPC vesicles (0% cholesterol), 10:1 lipid:peptide, 24 h at 37 °C, 10 mM ammonium acetate; peak areas normalised to [M + 2H]2+
[3] = target: T1, Nt17 peptide (the first 17 amino acids …); assay: native MS; cVSSI-MS, positive ion mode; Nt17 10 uM incubated with POPG vesicles with 20% exogenous cholesterol, 10:1 lipid:peptide, 24 h at 37 °C, 10 mM ammonium acetate; peak areas normalised to [M + 2H]2+
[4] = target: T1, Nt17 peptide (the first 17 amino acids …); assay: native MS; cVSSI-MS, positive ion mode; Nt17 10 uM incubated with POPC vesicles with 20% exogenous cholesterol, 10:1 lipid:peptide, 24 h at 37 °C, 10 mM ammonium acetate; peak areas normalised to [M + 2H]2+
[5] = target: T1, Nt17 peptide (the first 17 amino acids …); assay: native MS; cVSSI-MS, positive ion mode; Nt17 10 uM incubated with pure DOPC vesicles (0% cholesterol), 10:1 lipid:peptide, 24 h at 37 °C, 10 mM ammonium acetate; peak areas normalised to [M + 2H]2+

B1: Nt17 peptide (the first 17 amino acids at the N-terminus of huntingtin), P42858 1-17 (peptide)
peptide: MATLEKLMKAFESLKSF
relative peak area of [2M + 3L] (2 Nt17 + 3 DOPC), against [M + 2H]2+ [1]: 0.15%
total relative peak area of complexes with four peptides, against [M + 2H]2+ [1]: 1.2%
total relative peak area of complexes with three peptides, against [M + 2H]2+ [1]: 4%
total relative peak area of complexes with two peptides, against [M + 2H]2+ [1]: 8%
relative integrated peak area of [2M + 1L] (2 Nt17 + 1 POPC), against [M + 2H]2+ [2]: 1.3%
relative integrated peak area of [3M + 1L] (3 Nt17 + 1 POPC), against [M + 2H]2+ [2]: 0.8%
relative peak area of [2M + 2L] (2 Nt17 + 2 POPG), against [M + 2H]2+ [3]: 23%
relative peak area of [2M + 3L] (2 Nt17 + 3 POPG), against [M + 2H]2+ [3]: 0.6%
stoichiometry N [3]: 2
relative integrated peak area of [2M + 2L] (2 Nt17 + 2 POPC), against [M + 2H]2+ [4]: 0.11%
relative integrated peak area of [3M + 1L] (3 Nt17 + 1 POPC), against [M + 2H]2+ [4]: 1.1%
total relative integrated peak area of complexes with two peptides, against [M + 2H]2+ [4]: 2.7%
relative peak area of [2M + 3L] (2 Nt17 + 3 DOPC), against [M + 2H]2+ [5]: 0.45%
relative peak area of [3M + 1L] (3 Nt17 + 1 DOPC), against [M + 2H]2+ [5]: 3.3%
relative peak area of [4M + 1L] (4 Nt17 + 1 DOPC), against [M + 2H]2+ [5]: 0.98%
total relative peak area of complexes with three peptides, against [M + 2H]2+ [5]: 3.6%
total relative peak area of complexes with two peptides, against [M + 2H]2+ [5]: 10.3%

Reference: PMC10127259
